Assay results from article PMC4423116, “Tarantula toxins use common surfaces for interacting with Kv and ASIC ion channels” (eLife, 2015).

How the values were obtained:
Kv2.1 channel = molecular target: T1, Kv2.1 channel (Rattus norvegicus, UniProt P15387); experiment: Inhibition of Kv2.1 channel currents in Xenopus oocytes (two-electrode voltage clamp), apparent affinity; format: cell-based
T1 construct: expressed in transfected cells; host or cells: Xenopus laevis oocytes, cRNA injection
T1 sequence (P15387 1-857): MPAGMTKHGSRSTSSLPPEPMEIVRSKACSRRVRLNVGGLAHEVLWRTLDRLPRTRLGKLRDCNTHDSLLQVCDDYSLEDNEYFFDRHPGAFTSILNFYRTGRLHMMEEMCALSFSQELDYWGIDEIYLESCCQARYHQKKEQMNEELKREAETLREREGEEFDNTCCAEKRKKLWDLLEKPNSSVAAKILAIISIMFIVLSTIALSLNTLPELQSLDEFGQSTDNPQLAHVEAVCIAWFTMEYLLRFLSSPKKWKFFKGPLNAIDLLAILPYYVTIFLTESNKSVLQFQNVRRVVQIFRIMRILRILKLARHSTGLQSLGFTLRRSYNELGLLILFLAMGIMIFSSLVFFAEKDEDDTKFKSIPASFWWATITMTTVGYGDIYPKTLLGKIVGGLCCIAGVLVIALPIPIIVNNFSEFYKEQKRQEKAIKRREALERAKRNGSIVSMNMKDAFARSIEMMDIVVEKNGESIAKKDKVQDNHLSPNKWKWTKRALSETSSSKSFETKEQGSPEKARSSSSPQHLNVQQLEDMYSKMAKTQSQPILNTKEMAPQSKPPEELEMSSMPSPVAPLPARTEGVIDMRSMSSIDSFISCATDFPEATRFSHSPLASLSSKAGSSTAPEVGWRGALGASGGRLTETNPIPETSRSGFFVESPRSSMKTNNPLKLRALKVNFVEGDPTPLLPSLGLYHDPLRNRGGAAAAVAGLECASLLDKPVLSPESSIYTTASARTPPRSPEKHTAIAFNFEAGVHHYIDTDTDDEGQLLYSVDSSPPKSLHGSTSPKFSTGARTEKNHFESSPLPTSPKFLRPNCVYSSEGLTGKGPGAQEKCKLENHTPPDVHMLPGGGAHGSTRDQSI

[1] = Membrane partitioning into lipid vesicles detected with intrinsic Trp fluorescence (blue shift); format: physicochemical; conditions: lipid vesicles POPC:POPG 1:1
Protocol: Large unilamellar vesicles (LUVs) were prepared by drying the phospholipids from a chloroform solution under a nitrogen stream. The dried lipid film was rehydrated in buffer containing 10 mM HEPES, 1 mM EDTA, pH 7.6 (HEB). The resulting dispersions were extruded through 100 nm pore size polycarbonate filters (Millipore Corp.) till the solution became clear. All fluorescence measurements were performed in quartz cuvettes with 1 cm path length. Fluorescence spectra (averaging three spectra) were recorded between 300 and 450 nm (5 nm band pass, 0° polarizer) using an excitation wavelength of 280 nm (5 nm band pass, 90° polarizer) (SPEX FluoroMax 3 spectrofluorometer) and corrected for vesicle scattering. […] Mole-fraction partitioning coefficients (Kx) were calculated by measuring the fluorescence intensity (F) at 320 nm and normalizing to the zero lipid fluorescence intensity (F0) ([Ladokhin et al., 2000]; [Milescu et al., 2007]). Kx was calculated based on the best fits of the following equation to the data: F/F0(L) = 1 + (F/F0^max − 1)Kx[L]/([W] + Kx[L]), where F/F0(L) is the change in fluorescence intensity for a given concentration of lipid, F/F0^max is the maximum fluorescence increase at high lipid concentrations, [L] is the average available lipid concentration (60% of total lipid concentration) and [W] is the molar concentration of water (55.3 M).

[2] = Acrylamide quenching of Trp fluorescence (Stern-Volmer), protection by lipid vesicles; format: physicochemical; conditions: n = 3
Protocol: (§1) Protection of tryptophan fluorescence from acrylamide quenching was examined in the absence and presence of lipids (toxin: lipid = 1:500) by titration with increasing concentrations of acrylamide ([Milescu et al., 2007]). The Stern–Volmer quenching constant (KSV) was calculated based on the best fits of the following equation to the data: F0/F = 1 + KSV[Q], where F0 and F are fluorescence of the toxin in the absence and presence of acrylamide, and [Q] is the concentration of acrylamide. […] A solution containing ∼ 2 µM toxin and 0.3 M acrylamide was stirred continuously with addition of increasing concentrations of LUVs composed of 1:1 mixture of POPC and POPG. Fluorescence spectra (averaging three spectra) were recorded between 300 and 450 nm (5 nm band pass, 0° polarizer) using an excitation wavelength of 280 nm (5 nm band pass, 90° polarizer) (SPEX FluoroMax 3 spectrofluorometer) and corrected for vesicle scattering. For calculating mole–fraction partitioning coefficients (Kdx), the maximal fluorescence intensity (F at λmax) was measured and normalized to the zero lipid fluorescence intensity (F0). […]

[3] = Acrylamide dequenching by lipid vesicles (quenching-enhanced fluorescence titration); format: physicochemical; conditions: LUVs POPC:POPG 1:1
Protocol: as §1

[4] = Depth-dependent quenching of Trp fluorescence by brominated (diBr) phosphatidylcholines; format: physicochemical; conditions: 6,7-, 9,10- or 11,12-diBr PC : POPG 1:1 vesicles, 1.2 mM lipid
Protocol: For depth-dependent fluorescence quenching experiments with brominated lipids, LUVs contained a 1:1 molar ratio of POPG and POPC 6,7-, 9,10-, or 11,12-1-palmitoyl-2-stearoyl(dibromo)-sn-glycero-3-phosphocholine (diBr; Avanti Polar Lipids, Alabaster, AL). Fluorescence spectra were recorded between 300 and 450 nm using an excitation wavelength of 280 nm, corrected for vesicle scattering and normalized to the zero lipid fluorescence intensity.

Kv2.1-ASIC1a chimeras = experiment: Effect of PcTx1 on G-V relations of Kv2.1-ASIC1a chimeras in oocytes; format: cell-based; conditions: 5 µM PcTx1, extracellular application, external 50 mM KCl, n = 3
Excerpt: Chimeras were generated using sequential PCR with the Kv2.1∆7 channel ([Li-Smerin and Swartz, 1998]) as template. Primers encoding the 9-amino acid sequence of helix-5 from ASIC1a were utilized for overlap PCR. The DNA sequence of all constructs and mutants was confirmed by automated DNA sequencing. Complementary RNA (cRNA) was synthesized using T7 polymerase (mMessage mMachine kit; Ambion) after linearizing the DNA with appropriate restriction enzymes.
Oocytes from Xenopus laevis were removed surgically and incubated with agitation for 1 hr in a solution containing (in mM) 82.5 NaCl, 2.5 KCl, 1 MgCl2, 5 HEPES, pH 7.6 (with NaOH), and collagenase (2 mg/ml; Worthington Biochemical). Defolliculated oocytes were injected with cRNA encoding the Kv2.1 channel constructs and incubated at 17°C in a solution containing (in mM) 96 NaCl, 2 KCl, 1 MgCl2, 1.8 CaCl2, 5 HEPES, pH 7.6 with NaOH, and gentamicin (50 μg/ml, GIBCO-BRL), for 16–72 hr before electrophysiological recording. Oocyte membrane voltage was controlled using an OC-725C oocyte clamp (Warner Instruments). Data were filtered at 1 kHz and digitized at 10 kHz. Microelectrode resistances were 0.1–1 MΩ when filled with 3 M KCl. […] All experiments were performed at room temperature (∼22°C). Voltage-activations relationships in the absence and presence of different concentrations of the synthesized toxin were recorded. […]

ASIC1a = conditions: ref Chen et al., 2006; Dawson et al., 2012; cited from earlier work
Excerpt: PcTx1 also contains an Arg finger motif composed of R26, R27 and R28 that is required for […] of ASIC through interactions with channel residues situated in a crevice between subunits. In the case of voltage-sensor toxins such as hanatoxin and GxTx-1E, the S3b helix within the voltage-sensing domains of Kv channels co ...

[5] = analysis of quenching profiles with brominated lipids; ref Phillips et al., 2005; Swartz, 2007; Jung et al., 2010; Mihailescu et al., 2014; cited from earlier work
Excerpt: The results thus far reveal that both classes of tarantula toxins interact quite favorably with lipid membranes. […] For example, the solvent accessible surface area for the hydrophobic surface of PcTx1 is 380 Å^2, which compares with a value of 703 Å^2 for GxTx-1E. In addition, the hydrophobic surfaces on the two toxins are situated on distinct surfaces (Figure 1D,E). These differences between PcTx1 an ...

CC(C)C[C@@H]1NC(=O)CNC(=O)[C@H](Cc2c[nH]c3ccccc23)NC(=O)[C@H](CCCCN)NC(=O)[C@@H]2CCCN2C(=O)[C@H](CO)NC(=O)[C@@H]2CSSC[C@@H]3NC(=O)[C@H](CCCCN)NC(=O)[C@H](Cc4c[nH]c5ccccc45)NC(=O)[C@H](Cc4c[nH]c5ccccc45)NC(=O)[C@H](Cc4ccccc4)NC(=O)CNC(=O)CNC(=O)[C@@H](NC(=O)[C@H](CCC(=O)O)NC(=O)CNC(=O)[C@@H](N)CCC(=O)O)CSSC[C@H](NC(=O)[C@H](CSSC[C@@H](C(=O)N[C@@H](CC(N)=O)C(=O)N[C@@H](Cc4ccccc4)C(=O)N4CCC[C@H]4C(=O)N[C@@H](C)C(=O)N4CCC[C@H]4C(=O)O)NC1=O)NC(=O)[C@H](C)NC(=O)[C@@H]1CCCN1C(=O)[C@H](CCCCN)NC(=O)CNC(=O)[C@H](CO)NC(=O)CNC3=O)C(=O)N1CCC[C@H]1C(=O)N[C@@H](CCCCN)C(=O)N[C@@H](Cc1ccc(O)cc1)C(=O)N[C@@H](C(C)C)C(=O)N2 [Nle35A]
∆∆G (perturbation energy) (Kv2.1 channel; from apparent Kd of mutant vs GxTx-1E(Nle), Kv2.1 in oocytes): 0.19 kcal/mol

PcTx1
effect on the Kv2.1 channel (G-V relation) (Kv2.1 channel; 5 µM PcTx1, oocytes, external solution 50 mM KCl, tail currents, n = 3): no effect
maximal blue shift of Trp emission spectrum upon addition of lipid vesicles [1]: ~2 nm
Ksv (Stern–Volmer constant), acrylamide quenching in aqueous solution ([2]; toxin ∼2 µM in solution, no lipid): 29.2 M⁻¹
Ksv (Stern–Volmer constant), acrylamide quenching in presence of lipid vesicles ([2]; toxin ∼2 µM with 1.0 mM POPC:POPG 1:1 vesicles (toxin:lipid 1:500)): 11.2 M⁻¹
Kdx (mole-fraction partitioning coefficient from acrylamide dequenching) ([3]; maximal fluorescence intensity vs available lipid, ∼2 µM toxin, acrylamide 0.2 M / 0.3 M (methods), mean ± SEM (n = 3)): (4.3 ± 0.6) × 10^6
F/F0^max (dequenching function fit) ([3]; maximum fluorescence increase at highest lipid concentration, acrylamide present): 2.7 ± 0.08
quenching of Trp fluorescence by brominated lipids (in words) [4]: very weak quenching
effect on activity of five Kv2.1-ASIC1a chimeras (G-V relations) (Kv2.1-ASIC1a chimeras): no discernible effect
affinity for ASIC1a (in words) (ASIC1a): nM affinity

hanatoxin
position of Trp residues from the center of the bilayer [5]: 8–9 Å
